Reference: patent US7465453B2, “Polypeptide fragments of CKLF1” (Peking University, priority 2004, dated 2008)

Experiments:
CCR5 = biological target: T1, CCR5 (Homo sapiens, UniProt P51681); assay: Calcium flux assay in CCR5-transfected HEK293 cells; type: cell-based; conditions: for calcium flux: CCR5-transfected HEK293 cells, 167 nM C27 or C19, 100 nM RANTES; for desensitization of transfectants to subsequent RANTES treatment: CCR5 transfectants, first 167 nM peptide, then 100 nM RANTES
T1 construct: The cDNA fragments covering the open reading frames for various chemokine receptors were obtained as follows; expressed in transfected cells; host or cells: HEK293 (transient, electroporation)
Source text: (§1) The cDNA fragments covering the open reading frames for various chemokine receptors were obtained as follows. CCR4, CCR5 and CCR6 receptors were cloned from a K562 cell cDNA library by polymerase chain reaction (PCR). The primers were designed using the sequences from the following GenBank™ submissions: CCR4 (NM_005508.2), CCR5 (NM_000579) and CCR6 (AY242126). The fragments were cloned into an expression vector pcDI (modified in our lab from pcDNA3 vector (Invitrogen), in which the part between BgI II-Kpn I was replaced by the fragment of pCl vector (Promega) digested with BgI II-Kpn I) or pEGFP-N1 vector (CLONTECH) for efficient expression in HEK293 cells. The sequences coding receptors in expression plasmids were confirmed by DNA sequencing, which is consistent with the sequence submitted in GenBank™.
(§2) HEK293 cells were grown in RPMI 1640 supplemented with 10% heat-inactivated FBS, penicillin (100 U/ml) and streptomycin (100 μg/ml). Every 4×10^6 HEK293 cells in 400 μl were transiently transfected by electroporation with 15 μg of the expression plasmid at 120 V, 20 ms using an electric pulse generator (Electro Square Porator ECM 830, BTX, San Diego, Calif.), and calcium mobilization assay and chemotaxis assays were performed 48 hours later.
(§3) HEK293 cells transfected with pcDI-CCR4 or pcDI-CCR5 were grown in specialized glass-bottom microwell dishes (MatTek Corporation, U.S.A.) and loaded with 10 μM fluo-3/AM in HEPES-buffered saline at 37° C. for 1 hour in the dark. The cells were rinsed with HEPES-buffered saline and stimulated with 167 nM secreted CKLF1 peptides and 100 nM TARC or RANTES, respectively. Fluorescence was monitored at 488 nm (excitation wavelength) and 530 nm (emission wavelength) every 5 second using a Leica TCS-NT confocal fluorescence microscope with a 40× oil immersion lens (Wetzler, Heidelberg, Germany). The measurement was completed at room temperature and each field of cells was selected at random. Images were collected at 5 second intervals for 405 seconds. The images were analyzed for relative fluorescence using Leica confocal software. The relative fluorescence was determined using Microsoft Excel. All calcium flux assays were performed in the presence of extracellular calcium (in the absence of EDTA or EGTA) in the assay buffers. Therefore, both intracellular calcium release and extracellular calcium influx were analyzed.

CCR4 [1] = biological target: T2, CCR4 (Homo sapiens, UniProt P51679); assay: Chemotaxis assay (48-well microchemotaxis chamber) of HEK293 cells transfected with CCR4; type: cell-based; conditions: for chemotaxis induced after PTX pretreatment: CCR4-transfected HEK293 cells treated with 100 ng/ml PTX at 37° C. for 30 min; for desensitization of the receptor to subsequent stimulation with TARC, C27 or C19 (chemotaxis): HEK293/CCR4, pretreatment TARC or 2 μg/ml C27 or C19, 37° C., 30 min
T2 construct: The cDNA fragments covering the open reading frames for various chemokine receptors were obtained as follows; expressed in transfected cells; host or cells: HEK293 (transient, electroporation)
T2 sequence (P51679 1-360): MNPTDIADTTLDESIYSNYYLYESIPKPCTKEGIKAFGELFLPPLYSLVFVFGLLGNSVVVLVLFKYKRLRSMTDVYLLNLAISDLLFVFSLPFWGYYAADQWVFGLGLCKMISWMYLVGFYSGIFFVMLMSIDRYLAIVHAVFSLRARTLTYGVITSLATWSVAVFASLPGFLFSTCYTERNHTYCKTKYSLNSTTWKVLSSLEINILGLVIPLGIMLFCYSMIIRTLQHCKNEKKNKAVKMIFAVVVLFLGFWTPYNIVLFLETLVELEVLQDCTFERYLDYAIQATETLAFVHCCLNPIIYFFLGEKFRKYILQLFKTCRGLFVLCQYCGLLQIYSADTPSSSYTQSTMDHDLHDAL
Experimental: as §2
The chemotaxis assay was performed using a 48-well microchemotaxis chamber (Neutroprobe; Cabin John, Md., U.S.A.). Chemoattractants were diluted in HEPES-buffered RPMI 1640 medium supplemented with 0.1% BSA and placed in the lower wells (28 μl/well). HEK293 cells transfected with pcDI-CCR4, -CCR5 were resuspended in the same medium at 2×10^6 cells/ml and added to the upper wells (50 μl/well), which were separated from the lower wells by a polyvinylpyrrolidone-free polycarbonate filter with 8-μm pores. The chamber was incubated for 2 hours at 37° C. in 5% CO2 and 95% air. Filters were removed from the chamber, washed, fixed, and stained with Three Step Stain Set. Cells that migrated were counted in 5 randomly selected high power fields (400×) per well. The chemotactic index (CI) was calculated from the number of cells that migrated to the control. Significant chemotaxis was defined as CI>2. In some experiments, cells were pretreated with TARC, RANTES, purified CKLF-myc protein or secreted CKLF1 peptides for 30 min. at 37° C., or 100 ng/ml PTX (ALEXIS Biochemicals Corporation) for 6 hours at 37° C. prior to subsequent stimulations.

[2] = test system: OVA-sensitized murine asthma model; assay: OVA-sensitized murine asthma model; type: in vivo, C57BL/6 mice; conditions: for airway hyperreactivity: OVA-sensitized and challenged mice, i.p. pretreatment
Experimental: C57BL/6 mice (20-25 g) of either sex were sensitized by an i.p. injection (100 μl) of 20 μg chicken OVA (Sigma-Aldrich, St. Louis, Mo.) emulsified in Imject alum (2.25 mg Al(OH)3/2 mg Mg(OH)2) (Pierce, Rockfield, Ill.) on days 0 and 14. Mice were injected with 1, 10, or 100 μg of C27 or C19 i.p, and thirty minutes later, these mice were subsequently challenged with an aerosol generated from 1% OVA in saline (OVA), or saline alone, for 20 min by ultrasonic nebulization (DeVilbiss, Somerset, Pa.). This procedure was repeated daily on days 24, 25, and 26. The mice were assessed on day 28.

CCR4 [3] = biological target: T2, CCR4; assay: Internalization of CCR4-EGFP in transiently transfected HEK293 cells; type: cell-based; conditions: HEK293 cells transfected with pCCR4-EGFP; 37° C., 2 hours
Experimental: The cDNA fragment covering the open reading frame for CCR4 chemokine receptor was cloned into pEGFP-N1 vector (CLONTECH). pCCR4-EGFP transiently expressing HEK293 cells were cultured in glass-bottom dishes in RPMI 1640 with 10% FBS. After 16 to 24 hours serum starvation, cells were treated with CKLF1 C-terminal peptides or TARC at 37° C. for 2 hours. Cells were washed with cold PBS and fixed with 2% paraformaldehyde in PBS. The subcellular localization of CCR4-EGFP protein was visualized using a Leica TCS-NT confocal fluorescence microscope with a 63× oil immersion lens (Wetzler, Heidelberg, Germany). The excitation and emission wavelengths were 488 and 515-540 nm, respectively.

CCR4 [4] = biological target: T2, CCR4; assay: Calcium flux assay in CCR4-transfected HEK293 cells; type: cell-based; conditions: for calcium flux: CCR4-transfected HEK293 cells, 167 nM C27 or C19, 100 nM TARC; for desensitization of transfectants to subsequent TARC treatment: CCR4 transfectants, first 167 nM peptide, then 100 nM TARC
Source text: as §1, §2, §3

T1 sequence (P51681 whole entry, the tested form may be a part): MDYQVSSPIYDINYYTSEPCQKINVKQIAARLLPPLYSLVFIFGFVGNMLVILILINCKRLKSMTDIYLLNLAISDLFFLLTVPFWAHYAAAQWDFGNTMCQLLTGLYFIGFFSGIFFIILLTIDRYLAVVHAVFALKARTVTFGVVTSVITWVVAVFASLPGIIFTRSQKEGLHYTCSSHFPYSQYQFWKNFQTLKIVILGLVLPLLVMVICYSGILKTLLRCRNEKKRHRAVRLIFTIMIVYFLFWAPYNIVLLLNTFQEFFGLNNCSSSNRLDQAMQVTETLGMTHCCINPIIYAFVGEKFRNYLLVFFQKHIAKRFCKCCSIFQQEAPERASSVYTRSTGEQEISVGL

calcium flux (CCR5) | migration (chemotaxis) of transfected cells (CCR4 [1]; CCR4-transfected HEK293 cells) | chemotaxis induced after PTX pretreatment (CCR4 [1]) | calcium flux (CCR4 [4]) | Substance | desensitization of transfectants to subsequent RANTES treatment (CCR5) | desensitization of the receptor to subsequent stimulation with TARC, C27 or C19 (chemotaxis) (CCR4 [1]) | airway hyperreactivity [2] | inhibition of the eosinophil infiltration into the BAL fluid ([2]; doses ranging from 1 to 100 μg/mouse i.p., vs positive control group) | internalization of CCR4-EGFP (CCR4 [3]) | desensitization of transfectants to subsequent TARC treatment (CCR4 [4]) | inhibition of eosinophil recruitment into the airways (BAL fluid analysis) ([2]; 1 μg/mouse i.p., vs positive control group) | inhibition of eosinophil recruitment into the airways (BAL fluid analysis) ([2]; 10 μg/mouse i.p., vs positive control group) | inhibition of eosinophil recruitment into the airways (BAL fluid analysis) ([2]; 100 μg/mouse i.p., vs positive control group)
a strong calcium flux | could induce migration | completely abolished by PTX | could induce calcium flux | ALIYRKL LFNPSGPYQKKPVHEKKEVL (ALIYRKLLFNPSGPYQKKPVHEKKEVL; listed as Homo sapiens) [C27] | could desensitize | could desensitize the receptor | small, but not statistically significant, increase | did not demonstrate any inhibition | could induce internalization of CCR4-EGFP | could desensitize |  |  | 
a strong calcium flux |  | completely abolished by PTX | could induce calcium flux | FNPSGPYQKKPVHEKKEVL (listed as Homo sapiens) [C19] | could desensitize | could desensitize the receptor | significant decrease |  | could induce internalization of CCR4-EGFP | could desensitize | 78% | 69% | 74%
